US20200048328A1 (Bristol-Myers Squibb, published 2020)
Changes are numbered by the printed parent chain. Where two headings read alike, the source gives them in different places. Each block holds one binder with its values, some of them ahead of it.

Key:
human serum albumin [1] = biological target: T1, human serum albumin (human, UniProt P02768 25-609); assay: SPR, albumin immobilized, Adnectin 250 nM
T1 construct: immobilized on chips or coated on plates elsewhere; also called HSA; HuSA

rhesus serum albumin [2] = biological target: T2, rhesus serum albumin (rhesus, UniProt Q28522 17-600); assay: SPR, albumin immobilized, Adnectin 250 nM
T2 construct: also called RhSA; Rh-SA

mouse serum albumin [3] = biological target: T3, mouse serum albumin (mouse, UniProt P07724 25-608); assay: SPR, albumin immobilized, Adnectin 250 nM
T3 construct: also called MSA; MuSA

rat serum albumin [4] = biological target: T4, rat serum albumin (rat, UniProt P02770 25-608); assay: SPR, albumin immobilized, Adnectin 250 nM
T4 construct: also called Rat SA; RSA

human serum albumin [5] = biological target: T1, human serum albumin; assay: SPR, albumin immobilized
rhesus serum albumin [6] = biological target: T2, rhesus serum albumin; assay: SPR, albumin immobilized
mouse serum albumin [7] = biological target: T3, mouse serum albumin; assay: SPR, albumin immobilized
cynomolgus serum albumin [8] = biological target: T5, cynomolgus serum albumin (cynomolgus, UniProt A2V9Z4 25-608); assay: SPR, albumin immobilized
T5 construct: also called cynoSA; CySA

rat serum albumin [9] = biological target: T4, rat serum albumin; assay: SPR, albumin immobilized
human serum albumin [10] = biological target: T1, human serum albumin; assay: SPR, albumin immobilized; remark: listed apart in the source
rhesus serum albumin [11] = biological target: T2, rhesus serum albumin; assay: SPR, albumin immobilized; remark: listed apart in the source
mouse serum albumin [12] = biological target: T3, mouse serum albumin; assay: SPR, albumin immobilized; remark: listed apart in the source
human PCSK9 [13] = biological target: T6, human PCSK9 (human, UniProt Q8NBP7 31-692); assay: PCSK9:LDLR FRET, competition
T6 construct: also called hPCSK9; huPCSK9

human PCSK9 [14] = biological target: T6, human PCSK9; assay: PCSK9:EGFA FRET 1, competition
human PCSK9 [15] = biological target: T6, human PCSK9; assay: PCSK9:EGFA FRET 2, competition
human serum albumin [16] = biological target: T1, human serum albumin; assay: direct binding ELISA, albumin coated
rhesus serum albumin [17] = biological target: T2, rhesus serum albumin; assay: direct binding ELISA, albumin coated
mouse serum albumin [18] = biological target: T3, mouse serum albumin; assay: direct binding ELISA, albumin coated
human serum albumin [19] = biological target: T1, human serum albumin; assay: SPR, albumin immobilized, HBSP pH 7.4
rhesus serum albumin [20] = biological target: T2, rhesus serum albumin; assay: SPR, albumin immobilized, HBSP pH 7.4
mouse serum albumin [21] = biological target: T3, mouse serum albumin; assay: SPR, albumin immobilized, HBSP pH 7.4
human serum albumin [22] = biological target: T1, human serum albumin; assay: SPR, albumin immobilized, acetate pH 5.5
rhesus serum albumin [23] = biological target: T2, rhesus serum albumin; assay: SPR, albumin immobilized, acetate pH 5.5
mouse serum albumin [24] = biological target: T3, mouse serum albumin; assay: SPR, albumin immobilized, acetate pH 5.5
human serum albumin [25] = biological target: T1, human serum albumin; assay: SPR, albumin immobilized, acetate pH 7.4
rhesus serum albumin [26] = biological target: T2, rhesus serum albumin; assay: SPR, albumin immobilized, acetate pH 7.4
mouse serum albumin [27] = biological target: T3, mouse serum albumin; assay: SPR, albumin immobilized, acetate pH 7.4
human PCSK9 [28] = biological target: T6, human PCSK9; assay: BLI (Octet), biotinylated PCSK9 on tips, no HSA
human PCSK9 [29] = biological target: T6, human PCSK9; assay: BLI (Octet), biotinylated PCSK9 on tips, tandem in complex with excess HSA
domain I of HSA = biological target: T7, domain I of HSA (human, UniProt P02768 25-221, limits assumed); assay: SPR on HSA domains
T7 construct: domain: I; also called HSA domain I

domain III of HSA = biological target: T8, domain III of HSA (human, UniProt P02768 405-609, limits assumed); assay: SPR on HSA domains
T8 construct: domain: III; also called HuSA domainIII

human serum albumin [30] = biological target: T1, human serum albumin; assay: SPR, albumin immobilized; remark: listed apart in the source
rhesus serum albumin [31] = biological target: T2, rhesus serum albumin; assay: SPR, albumin immobilized; remark: listed apart in the source
mouse serum albumin [32] = biological target: T3, mouse serum albumin; assay: SPR, albumin immobilized; remark: listed apart in the source
cynomolgus serum albumin [33] = biological target: T5, cynomolgus serum albumin; assay: SPR, albumin immobilized; remark: listed apart in the source
rat serum albumin [34] = biological target: T4, rat serum albumin; assay: SPR, albumin immobilized; remark: listed apart in the source
human serum albumin [35] = biological target: T1, human serum albumin; assay: hFcRn:HSA competition AlphaScreen, pH 5.5
human serum albumin [36] = biological target: T1, human serum albumin; assay: direct binding ELISA on coated HSA, mono-Adnectin (column HSA EC50 (nM))

koff (human serum albumin [1]): 0.000211 s⁻¹
koff (rhesus serum albumin [2]): 0.000272 s⁻¹
koff (mouse serum albumin [3]): 0.000452 s⁻¹
koff (rat serum albumin [4]): 0.000786 s⁻¹
B1: 5916_E03.PS5-2 (designed binder)
chain: MGVSDVPRDLEVVAATPTSLLISWDAPAVTVRYYRITYGREVQKYSDLGPLYIYQEFTVPGSKSTATISGLKPGVDYTITVYAVTGSGESPASSKPISINYRTPCHHHHHH

Kd (human serum albumin [5]): 57.2 nM
koff (human serum albumin [5]): 0.000272 s⁻¹
kon (human serum albumin [5]): 4790 M⁻¹ s⁻¹
Kd (rhesus serum albumin [6]): 53.8 nM
koff (rhesus serum albumin [6]): 0.000351 s⁻¹
kon (rhesus serum albumin [6]): 6520 M⁻¹ s⁻¹
Kd (mouse serum albumin [7]): 43.3 nM
koff (mouse serum albumin [7]): 0.000723 s⁻¹
kon (mouse serum albumin [7]): 16700 M⁻¹ s⁻¹
Kd (cynomolgus serum albumin [8]): 50.5 nM
koff (cynomolgus serum albumin [8]): 0.000326 s⁻¹
kon (cynomolgus serum albumin [8]): 6440 M⁻¹ s⁻¹
Kd (rat serum albumin [9]): 200 nM
koff (rat serum albumin [9]): 0.00147 s⁻¹
kon (rat serum albumin [9]): 7350 M⁻¹ s⁻¹
B2: PCSK9-PKE2 tandem Adnectin w/o his tag 5190_E01 (designed binder)
chain: MGVSDVPRDLEVVAATPTSLLISWDAPAEGYGYYRITYGETGGNSPVQEFTVPVSKGTATISGLKPGVDYTITVYAVEFDFPGAGYYHRPISINYRTEPSTPPTPSPSTPPTPSPSGVSDVPRDLEVVAATPTSLLISWDAPAVTVRYYRITYGREVQKYSDLGPLYIYQEFTVPGSKSTATISGLKPGVDYTITVYAVTGSGESPASSKPISINYRTP
notes: also called ATI-1676; 4472_C06 tandem Adnectin without a 6X histidine tail

Kd (human serum albumin [10]): 67.1 nM
koff (human serum albumin [10]): 0.000324 s⁻¹
kon (human serum albumin [10]): 4820 M⁻¹ s⁻¹
Kd (rhesus serum albumin [11]): 68.7 nM
koff (rhesus serum albumin [11]): 0.000367 s⁻¹
kon (rhesus serum albumin [11]): 5340 M⁻¹ s⁻¹
Kd (mouse serum albumin [12]): 25.5 nM
koff (mouse serum albumin [12]): 0.000344 s⁻¹
kon (mouse serum albumin [12]): 13500 M⁻¹ s⁻¹
IC50 (human PCSK9 [13]): 2.5 nM
IC50 (human PCSK9 [14]): 7.88 nM
IC50 (human PCSK9 [15]): 5.88 nM
EC50 (human serum albumin [16]): 55.4 nM
EC50 (rhesus serum albumin [17]): 35.2 nM
EC50 (mouse serum albumin [18]): 7.3 nM
Kd (human serum albumin [19]): 83.8 nM
koff (human serum albumin [19]): 0.000301 s⁻¹
kon (human serum albumin [19]): 3590 M⁻¹ s⁻¹
Kd (rhesus serum albumin [20]): 71.7 nM
koff (rhesus serum albumin [20]): 0.000346 s⁻¹
kon (rhesus serum albumin [20]): 4820 M⁻¹ s⁻¹
Kd (mouse serum albumin [21]): 26.3 nM
koff (mouse serum albumin [21]): 0.000359 s⁻¹
kon (mouse serum albumin [21]): 13700 M⁻¹ s⁻¹
Kd (human serum albumin [22]): 43.9 nM
koff (human serum albumin [22]): 0.000489 s⁻¹
kon (human serum albumin [22]): 11100 M⁻¹ s⁻¹
Kd (rhesus serum albumin [23]): 110 nM
koff (rhesus serum albumin [23]): 0.000818 s⁻¹
kon (rhesus serum albumin [23]): 7400 M⁻¹ s⁻¹
Kd (mouse serum albumin [24]): 137 nM
koff (mouse serum albumin [24]): 0.0015 s⁻¹
kon (mouse serum albumin [24]): 11000 M⁻¹ s⁻¹
Kd (human serum albumin [25]): 83.9 nM
koff (human serum albumin [25]): 0.000387 s⁻¹
kon (human serum albumin [25]): 4610 M⁻¹ s⁻¹
Kd (rhesus serum albumin [26]): 75.4 nM
koff (rhesus serum albumin [26]): 0.000405 s⁻¹
kon (rhesus serum albumin [26]): 5380 M⁻¹ s⁻¹
Kd (mouse serum albumin [27]): 35 nM
koff (mouse serum albumin [27]): 0.000407 s⁻¹
kon (mouse serum albumin [27]): 11600 M⁻¹ s⁻¹
Kd (human PCSK9 [28]): 0.404 nM
koff (human PCSK9 [28]): 0.000118 s⁻¹
kon (human PCSK9 [28]): 289000 M⁻¹ s⁻¹
Kd (human PCSK9 [29]): 0.902 nM
koff (human PCSK9 [29]): 0.000148 s⁻¹
kon (human PCSK9 [29]): 161000 M⁻¹ s⁻¹
B3: PCSK9-PKE2 tandem 4472_F08 (designed binder)
PCSK9 domain: MGVSDVPRDLEVVAATPTSLLISWDAPAEGYGYYRITYGETGGNSPVQEFTVPVSKGTATISGLKPGVDYTITVYAVEFDFPGAGYYHRPISINYRTE
PKE2 domain: GVSDVPRDLEVVAATPTSLLISWDAPAVTVRYYRITYGREVQKYSDLGPLYIYQEFTVPGSKSTATISGLKPGVDYTITVYAVTGSGESPASSKPISINYRTEHHHHHH
modifications: The real molecule is ONE polypeptide: PCSK9 domain, undisclosed linker F, PKE2 domain. It is given here as two chains because the linker letters are unknown.
notes: not shown: The inter-domain linker

koff (human serum albumin [1]): 0.000253 s⁻¹
koff (rhesus serum albumin [2]): 0.000313 s⁻¹
koff (mouse serum albumin [3]): 0.000492 s⁻¹
koff (rat serum albumin [4]): 0.000902 s⁻¹
B4: 5963_A02.PS5-2 (designed binder)
chain: MGCSTSGVSDVPRDLEVVAATPTSLLISWDAPAVTVRYYRITYGREVQKYSDLGPLYIYQEFTVPGSKSTATISGLKPGVDYTITVYAVTGSGESPASSKPISINYRTPHHHHHH

koff (human serum albumin [1]): 0.000148 s⁻¹
koff (rhesus serum albumin [2]): 0.000172 s⁻¹
koff (mouse serum albumin [3]): 0.000307 s⁻¹
koff (rat serum albumin [4]): 0.000547 s⁻¹
B5: 5916_A04.PS5-2 (designed binder)
chain: MGVSDVPRDLEVVAATPTSLLISWDAPAVTVRYYRITYGREVQKYSDLGPLYIYQEFTVPGSKSTATISGLKPGVDYTITVYAVTGSGESPASSKPISINYRTPEDEDGCHHHHHH

binding result (domain I of HSA): no binding
binding result (domain III of HSA): no binding
Kd (human serum albumin [30]): 1 nM
koff (human serum albumin [30]): 0.000162 s⁻¹
kon (human serum albumin [30]): 167000 M⁻¹ s⁻¹
Kd (rhesus serum albumin [31]): 1.8 nM
koff (rhesus serum albumin [31]): 0.000362 s⁻¹
kon (rhesus serum albumin [31]): 207000 M⁻¹ s⁻¹
Kd (mouse serum albumin [32]): 13.6 nM
koff (mouse serum albumin [32]): 0.0092 s⁻¹
kon (mouse serum albumin [32]): 678000 M⁻¹ s⁻¹
Kd (cynomolgus serum albumin [33]): 1.6 nM
koff (cynomolgus serum albumin [33]): 0.000335 s⁻¹
kon (cynomolgus serum albumin [33]): 208000 M⁻¹ s⁻¹
Kd (rat serum albumin [34]): 200 nM
koff (rat serum albumin [34]): 0.0299 s⁻¹
kon (rat serum albumin [34]): 150000 M⁻¹ s⁻¹
IC50 (human serum albumin [35]): 28.7 nM
EC50 (human serum albumin [36]): 9 nM
B6: PKE2 Adnectin 2630_D02 (designed binder)
chain: B5 chain with L48W, Q55N, P104E, E105I, E107K, D108P, G109S, C110Q
notes: 10Fn3 domain with modified CD loop; the entry includes the His6 tail

koff (human serum albumin [1]): 0.000247 s⁻¹
koff (rhesus serum albumin [2]): 0.000313 s⁻¹
koff (mouse serum albumin [3]): 0.000499 s⁻¹
koff (rat serum albumin [4]): 0.000858 s⁻¹
B7: 5963_D01.PS5-2 (designed binder)
chain: MGVSDVPRDLEVVCATPTSLLISWDAPAVTVRYYRITYGREVQKYSDLGPLYIYQEFTVPGSKSTATISGLKPGVDYTITVYAVTGSGESPASSKPISINYRTPHHHHHH

koff (human serum albumin [1]): 0.000228 s⁻¹
koff (rhesus serum albumin [2]): 0.000284 s⁻¹
koff (mouse serum albumin [3]): 0.000461 s⁻¹
koff (rat serum albumin [4]): 0.00076 s⁻¹
B8: 5963_E02.PS5-2 (designed binder)
chain: B7 chain with C14A, T65C

koff (human serum albumin [1]): 0.000251 s⁻¹
koff (rhesus serum albumin [2]): 0.000312 s⁻¹
koff (mouse serum albumin [3]): 0.000504 s⁻¹
koff (rat serum albumin [4]): 0.000825 s⁻¹
B9: 5963_F03.PS5-2 (designed binder)
chain: B7 chain with C14A, A28C

koff (human serum albumin [1]): 0.00025 s⁻¹
koff (rhesus serum albumin [2]): 0.000313 s⁻¹
koff (mouse serum albumin [3]): 0.000507 s⁻¹
koff (rat serum albumin [4]): 0.000848 s⁻¹
B10: 5963_E01.PS5-2 (designed binder)
chain: B7 chain with C14A, T67C
